US8252521B2, “Method of screening substance useful in treating disease with the use of GPR40 and phospholipase” (Eisai R&D Management Co., Ltd., priority 2005, dated 2012)

T1: human GPR43 (Homo sapiens, UniProt O15552)
T1 construct: expressed in transfected cells; host or cells: SE302 cells (HEK293 clone carrying a CRE4-VIP promoter PLAP reporter), infected with retrovirus made from pBabeCL(GPR43)IH and selected with hygromycin
T1 sequence (O15552 1-330): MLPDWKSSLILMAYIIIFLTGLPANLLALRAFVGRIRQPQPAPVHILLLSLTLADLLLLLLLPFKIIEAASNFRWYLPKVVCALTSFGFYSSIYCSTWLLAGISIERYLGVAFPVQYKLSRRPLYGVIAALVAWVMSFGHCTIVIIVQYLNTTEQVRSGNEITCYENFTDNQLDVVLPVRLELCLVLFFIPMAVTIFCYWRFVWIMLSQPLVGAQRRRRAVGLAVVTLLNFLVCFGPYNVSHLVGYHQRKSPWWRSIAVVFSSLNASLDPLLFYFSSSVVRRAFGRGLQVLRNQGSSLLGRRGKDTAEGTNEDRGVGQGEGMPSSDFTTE

B1: mGX-sPLA2-His: purified mouse C-terminal His-tagged Group X secretory phospholipase A2, expressed in Sf9 cells (protein, UniProt Q9QXX3 29-151, looked up)
Group 10 secretory …: GLLELAGTLDCVGPRSPMAYMNYGCYCGLGGHGEPRDAIDWCCYHHDCCYSRAQDAGCSPKLDRYPWKCMDHHILCGPAENKCQELLCRCDEELAYCLAGTEYHLKYLFFPSILCEKDSPKCN
modifications: C-terminal His6 tag
notes: purified mouse C-terminal His-tagged Group X secretory phospholipase A2, expressed in Sf9 cells
B2: hGX-sPLA2-His: purified human C-terminal His-tagged Group X secretory phospholipase A2, expressed in Sf9 cells (protein, UniProt O15496 43-165, looked up)
Group 10 secretory …: GILELAGTVGCVGPRTPIAYMKYGCFCGLGGHGQPRDAIDWCCHGHDCCYTRAEEAGCSPKTERYSWQCVNQSVLCGPAENKCQELLCKCDQEIANCLAQTEYNLKYLFYPQFLCEPDSPKCD
modifications: C-terminal His6 tag
notes: purified human C-terminal His-tagged Group X secretory phospholipase A2, expressed in Sf9 cells
B3: C-terminal FLAG tagged hGX-sPLA2: C-terminal FLAG-tagged human GX-sPLA2 (SEQ ID NO: 41), purified from silkworm pupa extract (protein, listed as Homo sapiens)
chain: MGPLPVCLPIMLLLLLPSLLLLLLLPGPGSGEASRILRVHRRGILELAGTVGCVGPRTPIAYMKYGCFCGLGGHGQPRDAIDWCCHGHDCCYTRAEEAGCSPKTERYSWQCVNQSVLCGPAENKCQELLCKCDQEIANCLAQTEYNLKYLFYPQFLCEPDSPKCDDYKDDDDK
modifications: C-terminal FLAG tag
B4: C-terminal FLAG tagged mGX-sPLA2: C-terminal FLAG-tagged mouse GX-sPLA2 (SEQ ID NO: 43), purified from Sf-9 culture supernatant (protein, listed as Mus musculus)
chain: MLLLLLLLLLGPGPGFSEATRRSHVYKRGLLELAGTLDCVGPRSPMAYMNYGCYCGLGGHGEPRDAIDWCCYHHDCCYSRAQDAGCSPKLDRYPWKCMDHHILCGPAENKCQELLCRCDEELAYCLAGTEYHLKYLFFPSILCEKDSPKCNDYKDDDDK
modifications: C-terminal FLAG tag

Assays:
Assay type in all cases: cell-based
Conditions in all cases: forskolin 0.3 μM, 24 hours with sample
human GPR40 = target: T2, human GPR40 (Homo sapiens, UniProt O14842); test: PLAP reporter transcription activity in GPR40-SE302 cells
T2 construct: expressed in transfected cells; host or cells: SE302 cells (HEK293 clone carrying a CRE4-VIP promoter PLAP reporter), infected with retrovirus made from pBabeCL(GPR40)IH and selected with hygromycin
Experimental: (§1) The GPR40-SE302 cells and GPR43-SE302 cells constructed in Examples 6 and 7 described above were suspended in a culture medium for measurement of transcription activity (DMEM containing FBS, which was heat-treated at 65° C. for 30 min, at a final concentration of 10%) and seeded onto a 96 well plate (Becton Dickinson, Co.) at 1×10^4 cells/well. In addition, as control cells, SE302 cells expressing green fluorescent protein (GFP, Invitrogen Corporation) (referred to as “GFP-SE302 cells” hereinafter) were used. Specifically, GFP-302 cells were prepared by obtaining a virus for expressing GFP using the method shown in Example 3 and 4, and transfecting SE302 cells with the virus using the method shown in Example 6. Cells were cultured for 24 hours after seeding, and forskolin prepared at a final concentration of 0.3 μM and a sample were added. Cells were cultured for another 24 hours, and 5 μL of the cell supernatant was recovered and transferred to a polypropylene 384-well white plate (Nalge Nunc International, Co.). Then, 20 μL of the assay buffer (280 mmol/L Na2CO3—NaHCO3, 8 mmol/L MgSO4, pH 10) and 25 μL of Lumiphos530 (Lumigen, Co.) were added. Following a 2-hour reaction at room temperature, chemiluminescence in each well was measured using a Fusion plate reader (Perkin Elmer, Co.) and was defined as the transcription activity. Based on these measured levels, stimulation/inhibition of transcription activity was calculated using the equation (I) shown below and described as [% of control]. Activities of the group with a sample added were calculated using the level of a control placed on each plate. [% of control]=(X−C)/(F−C)×100 (I) wherein,
(§2) X: PLAP transcription activity in the group added with a sample,
(§3) F: Mean level of transcription activity in 2 wells of a positive control (no sample added, stimulated with forskolin), and
(§4) C: Mean level of transcription activity in 2 wells of a negative control (no sample added, not stimulated with forskolin).

human GPR43 = target: T1, human GPR43; test: PLAP reporter transcription activity in GPR43-SE302 cells
Experimental: as §1, §2, §3, §4

GFP-SE302 cells = test: PLAP reporter transcription activity in GFP-SE302 control cells
Experimental: as §1, §2, §3, §4

T2 sequence (O14842 whole entry): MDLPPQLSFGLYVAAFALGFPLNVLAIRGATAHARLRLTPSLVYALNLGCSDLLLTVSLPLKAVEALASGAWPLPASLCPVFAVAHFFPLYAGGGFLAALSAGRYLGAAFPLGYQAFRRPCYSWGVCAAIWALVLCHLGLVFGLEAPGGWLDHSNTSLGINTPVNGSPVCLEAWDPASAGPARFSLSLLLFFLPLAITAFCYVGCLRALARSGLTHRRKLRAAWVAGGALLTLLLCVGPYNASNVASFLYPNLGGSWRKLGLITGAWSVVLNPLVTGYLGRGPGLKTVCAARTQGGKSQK

| Molecule | PLAP activity in GPR40-SE302 cells (human GPR40) | PLAP activity in GPR43-SE302 cells (human GPR43) | PLAP activity in GFP-SE302 cells (GFP-SE302 cells) |
| --- | --- | --- | --- |
| porcine pancreatic sPLA2: Phospholipase A2 from porcine pancreas, Sigma; primarily Group IB secretory phospholipase A2 (Swiss Prot P00592) | concentration dependent elevation of PLAP activity | no elevation of PLAP activity | no elevation of PLAP activity |
| B1 | concentration dependent elevations of PLAP activity | – | no specific elevation of PLAP activity |
| B2 | concentration dependent elevations of PLAP activity | – | no specific elevation of PLAP activity |
| B3 | concentration-dependent elevation of PLAP activity | no elevation of PLAP activity | no elevation of PLAP activity |
| B4 | concentration-dependent elevation of PLAP activity | no elevation of PLAP activity | no elevation of PLAP activity |
